Paper PMC11742690

Biological target: AMDHD1 (UniProt Q96NU7)
Experiment: co-immunoprecipitation, western blot
Details: sites S464,S465,S467

Substance	binding against the reference (reference: wild-type SMAD3)	binding against the reference (reference: wild-type SMAD2)
SMAD3 (from UniProt P84022) SMAD3-A (three C-terminal serines to alanine)	lost	
SMAD2 (from UniProt Q15796) SMAD2-A (S464A/S465A/S467A)		lost
